This is an account of results in the supplement of paper PMC9112550, “Optimization of the antimicrobial peptide Bac7 by deep mutational scanning” (BMC Biology, 2022).

For the series, the system named is Escherichia coli TOP10. As to the kind of experiment: shrunken log2 fold change of peptide-encoding DNA abundance (4.5 h post-induction vs induction); higher = less antimicrobial activity (less host growth inhibition). The settings on record: time post-induction: 4.5 h; library: site-saturation at positions 5, 18, 19, 20.
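Note: peptides expressed intracellularly from a pBAD plasmid library in pooled LB shake-flask culture, induced with 0.3% L-arabinose, DNA abundance read by NGS, three biological replicates, DESeq2 with apeglm shrinkage.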

As for RRIRFRPPRLPRPRPRPPQCPRP, the “shrunken log2 fold change” value was determined as 0.237.

Regarding RRIRARPPRLPRPRPRPSYFPRP, the “shrunken log2 fold change” value is -0.555.

As for RRIRVRPPRLPRPRPRPTEGPRP, the “shrunken log2 fold change” value stood at 0.0116.

For RRIRYRPPRLPRPRPRPTHYPRP, the “shrunken log2 fold change” value was -0.867.

For RRIRGRPPRLPRPRPRPEWCPRP, the “shrunken log2 fold change” value was found to be 1.19.

With RRIRRRPPRLPRPRPRPHPDPRP, the “shrunken log2 fold change” value was found to be 0.474.

Regarding RRIRNRPPRLPRPRPRPHNHPRP, the “shrunken log2 fold change” value was -0.739.

For the sequence RRIRARPPRLPRPRPRPQSSPRP, the “shrunken log2 fold change” value was -0.0298.

Consider RRIRDRPPRLPRPRPRPRHTPRP, for which the “shrunken log2 fold change” value came to 0.122.

On to RRIRSRPPRLPRPRPRPHSMPRP, for which the “shrunken log2 fold change” value is -0.521.

In the case of RRIRYRPPRLPRPRPRPRYHPRP, the “shrunken log2 fold change” value was -0.922.

Turning to RRIRYRPPRLPRPRPRPQAYPRP, the “shrunken log2 fold change” value is -0.00884.

On to RRIRIRPPRLPRPRPRPIKYPRP, for which the “shrunken log2 fold change” value is -2.06.

Take RRIRWRPPRLPRPRPRPTAQPRP: the “shrunken log2 fold change” value came to 0.894.

On to RRIRERPPRLPRPRPRPYGNPRP, for which the “shrunken log2 fold change” value is -0.0871.

RRIRTRPPRLPRPRPRPEWFPRP: the “shrunken log2 fold change” value stood at 0.0821.

For the sequence RRIRRRPPRLPRPRPRPHGYPRP, the “shrunken log2 fold change” value turned out to be 0.0169.

Take RRIRNRPPRLPRPRPRPKRIPRP: the “shrunken log2 fold change” value is -0.107.

Consider RRIRHRPPRLPRPRPRPHKMPRP, for which the “shrunken log2 fold change” value was -0.266.

As to RRIRIRPPRLPRPRPRPFIIPRP, the “shrunken log2 fold change” value is -1.76.

With RRIRKRPPRLPRPRPRPKPCPRP, the “shrunken log2 fold change” value amounted to 0.0204.

Regarding RRIRGRPPRLPRPRPRPYTCPRP, the “shrunken log2 fold change” value is -0.0226.

Turning to RRIRKRPPRLPRPRPRPKNVPRP, the “shrunken log2 fold change” value is 0.0773.

Take RRIRWRPPRLPRPRPRPFTGPRP: the “shrunken log2 fold change” value amounted to 0.0256.

Take RRIRCRPPRLPRPRPRPRTIPRP: the “shrunken log2 fold change” value is -0.154.

Regarding RRIRTRPPRLPRPRPRPIMAPRP, the “shrunken log2 fold change” value was -0.281.

Turning to RRIRARPPRLPRPRPRPNYSPRP, the “shrunken log2 fold change” value is -0.502.

Regarding RRIRARPPRLPRPRPRPGCLPRP, the “shrunken log2 fold change” value was 0.419.

RRIRHRPPRLPRPRPRPGKRPRP: the “shrunken log2 fold change” value is -0.0157.

On to RRIRCRPPRLPRPRPRPVSVPRP, for which the “shrunken log2 fold change” value is -0.0739.

In the case of RRIRRRPPRLPRPRPRPPRYPRP, the “shrunken log2 fold change” value is 0.978.

Regarding RRIRSRPPRLPRPRPRPNIIPRP, the “shrunken log2 fold change” value is -0.774.

As to RRIRVRPPRLPRPRPRPGDRPRP, the “shrunken log2 fold change” value was determined as 0.365.

Turning to RRIRYRPPRLPRPRPRPMVKPRP, the “shrunken log2 fold change” value was -0.574.

In the case of RRIRARPPRLPRPRPRPKKMPRP, the “shrunken log2 fold change” value is -0.0239.

In the case of RRIRHRPPRLPRPRPRPPRFPRP, the “shrunken log2 fold change” value is 0.578.

For the sequence RRIRLRPPRLPRPRPRPVCWPRP, the “shrunken log2 fold change” value amounted to 0.462.

As to RRIRCRPPRLPRPRPRPTRWPRP, the “shrunken log2 fold change” value stood at 0.284.

Turning to RRIRTRPPRLPRPRPRPAFLPRP, the “shrunken log2 fold change” value amounted to 0.228.

As for RRIRQRPPRLPRPRPRPAMVPRP, the “shrunken log2 fold change” value was found to be 0.206.

Turning to RRIRFRPPRLPRPRPRPSVKPRP, the “shrunken log2 fold change” value is -0.347.

In the case of RRIRQRPPRLPRPRPRPWTHPRP, the “shrunken log2 fold change” value is 0.00902.

Regarding RRIRRRPPRLPRPRPRPPEGPRP, the “shrunken log2 fold change” value came to 0.657.

Regarding RRIRIRPPRLPRPRPRPRIAPRP, the “shrunken log2 fold change” value is -0.0281.

As for RRIRIRPPRLPRPRPRPMLHPRP, the “shrunken log2 fold change” value is -0.749.

With RRIRARPPRLPRPRPRPCNCPRP, the “shrunken log2 fold change” value worked out at 0.00702.

For the sequence RRIRSRPPRLPRPRPRPGRFPRP, the “shrunken log2 fold change” value was 0.406.

Consider RRIRRRPPRLPRPRPRPRFKPRP, for which the “shrunken log2 fold change” value amounted to 0.0822.

RRIRWRPPRLPRPRPRPMLNPRP: the “shrunken log2 fold change” value was -0.00515.

As for RRIRARPPRLPRPRPRPLIWPRP, the “shrunken log2 fold change” value was 0.359.

Turning to RRIRLRPPRLPRPRPRPYRAPRP, the “shrunken log2 fold change” value was -0.21.

RRIRSRPPRLPRPRPRPKIAPRP: the “shrunken log2 fold change” value was 0.0525.

Turning to RRIRERPPRLPRPRPRPYKRPRP, the “shrunken log2 fold change” value was -0.905.

With RRIRNRPPRLPRPRPRPPILPRP, the “shrunken log2 fold change” value is 0.144.

Consider RRIRQRPPRLPRPRPRPEVRPRP, for which the “shrunken log2 fold change” value amounted to 0.0665.

For RRIRNRPPRLPRPRPRPAYQPRP, the “shrunken log2 fold change” value is -0.146.

With RRIRARPPRLPRPRPRPPQGPRP, the “shrunken log2 fold change” value worked out at 0.689.

As for RRIRMRPPRLPRPRPRPEWQPRP, the “shrunken log2 fold change” value came out at 0.23.

As to RRIRTRPPRLPRPRPRPWKDPRP, the “shrunken log2 fold change” value was 0.0143.

As for RRIRSRPPRLPRPRPRPGSYPRP, the “shrunken log2 fold change” value is -0.0952.

As to RRIRQRPPRLPRPRPRPAQKPRP, the “shrunken log2 fold change” value is -0.0027.

Turning to RRIRMRPPRLPRPRPRPLIPPRP, the “shrunken log2 fold change” value is -0.0413.

RRIRYRPPRLPRPRPRPCDFPRP: the “shrunken log2 fold change” value is -0.227.

In the case of RRIRTRPPRLPRPRPRPIEYPRP, the “shrunken log2 fold change” value was -0.233.

RRIRWRPPRLPRPRPRPDNVPRP: the “shrunken log2 fold change” value was -0.26.

Turning to RRIRCRPPRLPRPRPRPRKYPRP, the “shrunken log2 fold change” value is -0.458.

Regarding RRIRNRPPRLPRPRPRPMNDPRP, the “shrunken log2 fold change” value amounted to 0.42.

Take RRIRIRPPRLPRPRPRPGDDPRP: the “shrunken log2 fold change” value came to 0.136.

As for RRIRLRPPRLPRPRPRPDDTPRP, the “shrunken log2 fold change” value was -0.0691.

As for RRIRQRPPRLPRPRPRPYDGPRP, the “shrunken log2 fold change” value is -0.101.

As for RRIRPRPPRLPRPRPRPHTPPRP, the “shrunken log2 fold change” value was -0.0561.

Take RRIRCRPPRLPRPRPRPRRLPRP: the “shrunken log2 fold change” value turned out to be 0.133.

Take RRIRVRPPRLPRPRPRPVWEPRP: the “shrunken log2 fold change” value was 0.0761.

Regarding RRIRDRPPRLPRPRPRPINCPRP, the “shrunken log2 fold change” value was -0.0287.

For the sequence RRIRHRPPRLPRPRPRPMGKPRP, the “shrunken log2 fold change” value was -0.189.

With RRIRHRPPRLPRPRPRPWFVPRP, the “shrunken log2 fold change” value is -0.14.

As to RRIRVRPPRLPRPRPRPPNYPRP, the “shrunken log2 fold change” value is -0.194.

Take RRIRERPPRLPRPRPRPSHQPRP: the “shrunken log2 fold change” value was -0.19.

RRIRGRPPRLPRPRPRPCERPRP: the “shrunken log2 fold change” value is 0.013.

Take RRIRNRPPRLPRPRPRPMSDPRP: the “shrunken log2 fold change” value was -0.00992.

Take RRIRIRPPRLPRPRPRPTGVPRP: the “shrunken log2 fold change” value was 0.039.

Regarding RRIRVRPPRLPRPRPRPWRWPRP, the “shrunken log2 fold change” value worked out at 0.48.

On to RRIRHRPPRLPRPRPRPIPQPRP, for which the “shrunken log2 fold change” value is -0.126.

Consider RRIRMRPPRLPRPRPRPHYMPRP, for which the “shrunken log2 fold change” value is -0.425.

As for RRIRTRPPRLPRPRPRPADDPRP, the “shrunken log2 fold change” value stood at 0.165.

As for RRIRSRPPRLPRPRPRPWSHPRP, the “shrunken log2 fold change” value was -0.174.

For the sequence RRIRHRPPRLPRPRPRPTRDPRP, the “shrunken log2 fold change” value came to 0.054.

On to RRIRPRPPRLPRPRPRPRNNPRP, for which the “shrunken log2 fold change” value is -0.228.

Regarding RRIRVRPPRLPRPRPRPVPMPRP, the “shrunken log2 fold change” value was found to be 0.0779.

RRIRHRPPRLPRPRPRPDTAPRP: the “shrunken log2 fold change” value was 0.0194.

As to RRIRARPPRLPRPRPRPFQEPRP, the “shrunken log2 fold change” value was found to be 0.127.
